According to publication PMC7221550, “Membrane Phospholipids and Polyphosphates as Cofactors and Binding Molecules of SERPINA12 (vaspin)” (Molecules, 2020):

Target: Recombinant human kallikrein 7 (KLK7) (human, UniProt P49862 30-253)
Experiment: cell-based or functional assay

Recombinant human kallikrein 7 (KLK7), sequence (P49862 30-253): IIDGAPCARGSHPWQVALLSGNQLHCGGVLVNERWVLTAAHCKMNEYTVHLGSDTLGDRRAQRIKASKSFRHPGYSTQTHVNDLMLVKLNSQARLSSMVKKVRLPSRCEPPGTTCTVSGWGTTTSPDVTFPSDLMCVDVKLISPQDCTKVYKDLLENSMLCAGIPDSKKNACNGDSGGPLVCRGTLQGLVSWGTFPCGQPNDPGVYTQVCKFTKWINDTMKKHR

B1: Recombinant human vaspin wild type (visceral adipose tissue derived serine protease inhibitor, SERPINA12) (natural protein)
chain: KPSFSPRNYKALSEVQGWKQRMAAKELARQNMDLGFKLLKKLAFYNPGRNIFLSPLSISTAFSMLCLGAQDSTLDEIKQGFNFRKMPEKDLHEGFHYIIHELTQKTQDLKLSIGNTLFIDQRLQPQRKFLEDAKNFYSAETILTNFQNLEMAQKQINDFISQKTHGKINNLIENIDPGTVMLLANYIFFRARWKHEFDPNVTKEEDFFLEKNSSVKVPMMFRSGIYQVGYDDKLSCTILEIPYQKNITAIFILPDEGKLKHLEKGLQVDTFSRWKTLLSRRVVDVSVPRLHMTGTFDLKKTLSYIGVSKIFEEHGDLTKIAPHRSLKVGEAVHKAELKMDERGTEGAAGTGAQTLPMETPLVVKIDKPYLLLIYSEKIPSVLFLGKIVNPIGK
For B1, the “second-order rate constant of KLK7 inhibition by vaspin under pseudo-first-order conditions, x-fold over control, with polyP45 (polyP/serpin ratio of 10:1)” value was 5 fold and the “second-order rate constant of KLK7 inhibition by vaspin under pseudo-first-order conditions, x-fold over control, with unfractionated heparin (ligand/serpin ratio of 10)” value was 5 fold.
